The chains are these.
B1: Membrane-associated guanylate kinase, WW and PDZ domain-containing protein 3, residues 287 to 329; numbered along this chain, Q5TCQ9 (parent)
chain: MRDETLEPLPKNWEMAYTDTGMIYFIDHNTKTTTWLDPRLCKK

± gives the uncertainty stated by the source.

Variants of B1 are the subject of this series. Kind of series: abundance fitness (aPCA) (normalised: wild type 0, dead -1); higher = more abundant; growth selection in yeast, the domain comes from the species named. The settings on record: Homo sapiens.
Regarding T5R, the abundance fitness is -0.064 ± 0.036.

With T5E, the abundance fitness was -0.046 ± 0.037.

I26T: the abundance fitness is -0.437 ± 0.045.

For the variant I26D, the abundance fitness is -0.659 ± 0.13.

Take I26Y: the abundance fitness was -0.479 ± 0.14.

Take I26K: the abundance fitness was -0.196 ± 0.051.

Y17A: the abundance fitness was 0.026 ± 0.047.

Regarding Y17D, the abundance fitness was -0.323 ± 0.058.

In the case of Y17F, the abundance fitness was -0.043 ± 0.066.

Regarding Y17L, the abundance fitness is -0.034 ± 0.04.

On to R39I, for which the abundance fitness is -0.332 ± 0.075.

With R39C, the abundance fitness is -0.322 ± 0.041.

As to M22L, the abundance fitness was -0.043 ± 0.04.

On to M22S, for which the abundance fitness was 0.199 ± 0.13.

On to M22K, for which the abundance fitness amounted to 0.075 ± 0.07.

Consider M22H, for which the abundance fitness is -0.137 ± 0.06.

With M22Y, the abundance fitness was 0.004 ± 0.14.

For the variant M22E, the abundance fitness worked out at 0.144 ± 0.044.

For the variant P8C, the abundance fitness was -0.332 ± 0.24.

In the case of P8R, the abundance fitness is -0.112 ± 0.031.

In the case of P8V, the abundance fitness is -0.187 ± 0.035.

As to T30P, the abundance fitness is -0.887 ± 0.092.

Regarding T30S, the abundance fitness is -0.051 ± 0.04.

Take T30L: the abundance fitness is -0.207 ± 0.035.

In the case of T30A, the abundance fitness is -0.116 ± 0.035.

For K11C, the abundance fitness is -0.137 ± 0.039.

Regarding K11P, the abundance fitness is 0.007 ± 0.049.

On to T32Q, for which the abundance fitness is -0.137 ± 0.036.

On to T32H, for which the abundance fitness was -0.438 ± 0.054.

Turning to T32D, the abundance fitness was -0.47 ± 0.079.

As for N29S, the abundance fitness was -0.103 ± 0.036.

For the variant N29D, the abundance fitness was -0.141 ± 0.059.

N29M: the abundance fitness was -0.142 ± 0.046.

Turning to N29T, the abundance fitness is -0.051 ± 0.039.

On to N29I, for which the abundance fitness is -0.194 ± 0.059.

As to N29K, the abundance fitness is -0.105 ± 0.046.

In the case of N29A, the abundance fitness is -0.074 ± 0.031.

Turning to N29V, the abundance fitness is -0.094 ± 0.033.

With N29E, the abundance fitness was -0.03 ± 0.035.

Take D27W: the abundance fitness is -1.07 ± 0.094.

D27E: the abundance fitness is -0.266 ± 0.042.

As to D27K, the abundance fitness was -0.98 ± 0.095.

Regarding D27C, the abundance fitness was -0.403 ± 0.081.

Take E7W: the abundance fitness was -0.24 ± 0.044.

In the case of E7C, the abundance fitness is -0.324 ± 0.067.

Turning to E7Q, the abundance fitness was -0.04 ± 0.041.

Turning to E7R, the abundance fitness was -0.084 ± 0.033.

For the variant E7S, the abundance fitness was -0.049 ± 0.044.

Turning to E4K, the abundance fitness is -0.107 ± 0.065.

As for E4Y, the abundance fitness is -0.319 ± 0.11.

For the variant E4C, the abundance fitness is -0.062 ± 0.038.

Consider E4G, for which the abundance fitness was -0.113 ± 0.03.

For E4D, the abundance fitness is -0.115 ± 0.055.

F25L: the abundance fitness was -0.82 ± 0.056.

For F25W, the abundance fitness was -0.077 ± 0.036.

Consider F25V, for which the abundance fitness was -0.989 ± 0.052.

Take F25D: the abundance fitness is -0.516 ± 0.042.

On to I23E, for which the abundance fitness turned out to be 0.028 ± 0.034.

As to I23N, the abundance fitness is -0.12 ± 0.058.

Turning to I23F, the abundance fitness is -0.162 ± 0.098.

Take I23M: the abundance fitness was -0.006 ± 0.047.

Consider I23L, for which the abundance fitness is -0.01 ± 0.029.

Take I23W: the abundance fitness was -0.277 ± 0.05.

Regarding I23S, the abundance fitness is -0.068 ± 0.04.

For K42D, the abundance fitness was found to be 0.002 ± 0.04.

Consider K42A, for which the abundance fitness came to 0.018 ± 0.027.

K42S: the abundance fitness was -0.063 ± 0.035.

For the variant K42L, the abundance fitness is -0.086 ± 0.032.

In the case of K42G, the abundance fitness is -0.014 ± 0.029.

Regarding K31R, the abundance fitness was -0.017 ± 0.03.

Turning to K31C, the abundance fitness was -0.09 ± 0.042.

On to K31D, for which the abundance fitness is -0.205 ± 0.043.

For K31M, the abundance fitness is -0.071 ± 0.039.

Regarding K31P, the abundance fitness is -0.812 ± 0.075.

Regarding K31L, the abundance fitness was -0.182 ± 0.033.

Turning to K31T, the abundance fitness is -0.214 ± 0.042.

Turning to L9R, the abundance fitness was -0.639 ± 0.058.

For the variant L9W, the abundance fitness is -0.492 ± 0.073.

Turning to L9E, the abundance fitness was -0.566 ± 0.052.

As to A16M, the abundance fitness was -0.36 ± 0.058.

With A16N, the abundance fitness is -0.318 ± 0.086.

Take A16Q: the abundance fitness is -0.15 ± 0.039.

In the case of D3F, the abundance fitness was -0.161 ± 0.065.

For the variant D3I, the abundance fitness is -0.213 ± 0.1.

Consider D3Y, for which the abundance fitness is -0.367 ± 0.12.

With D3P, the abundance fitness was -0.072 ± 0.053.

With K43Q, the abundance fitness stood at 0.136 ± 0.15.

For the variant K43C, the abundance fitness is -0.065 ± 0.045.

With G21W, the abundance fitness is -0.782 ± 0.068.

For G21Q, the abundance fitness was -0.222 ± 0.059.

Turning to G21S, the abundance fitness was -0.487 ± 0.066.

In the case of G21D, the abundance fitness is -0.241 ± 0.091.

For the variant G21M, the abundance fitness is -0.46 ± 0.067.

For the variant G21R, the abundance fitness was -0.237 ± 0.033.

For G21A, the abundance fitness is -0.312 ± 0.036.

On to C41Q, for which the abundance fitness was determined as 0.04 ± 0.037.

C41L: the abundance fitness was -0.013 ± 0.033.

In the case of C41K, the abundance fitness is -0.015 ± 0.04.

With C41R, the abundance fitness was -0.021 ± 0.029.

Take C41G: the abundance fitness was -0.004 ± 0.029.

In the case of C41T, the abundance fitness came out at 0.01 ± 0.046.

Regarding C41H, the abundance fitness came to 0.051 ± 0.081.

T33N: the abundance fitness was -0.418 ± 0.076.

Regarding T33F, the abundance fitness was -0.584 ± 0.1.

As for T33I, the abundance fitness was -0.519 ± 0.059.

In the case of D37E, the abundance fitness is -0.556 ± 0.042.

As to D37A, the abundance fitness is -0.436 ± 0.03.

As to D37V, the abundance fitness was -0.926 ± 0.043.

M15S: the abundance fitness is -0.047 ± 0.042.

Take M15F: the abundance fitness was -0.189 ± 0.036.

For the variant M15R, the abundance fitness is -0.013 ± 0.034.

For the variant M15E, the abundance fitness was -0.062 ± 0.051.

Consider M15I, for which the abundance fitness was 0.036 ± 0.24.

Consider M15G, for which the abundance fitness was -0.334 ± 0.034.

On to L6F, for which the abundance fitness was -0.13 ± 0.19.

Take L6A: the abundance fitness was 0.016 ± 0.036.

For L6E, the abundance fitness was -0.029 ± 0.053.

In the case of L6W, the abundance fitness is -0.108 ± 0.039.

For D19R, the abundance fitness is -0.091 ± 0.045.

With D19P, the abundance fitness was -0.07 ± 0.052.

Regarding D19T, the abundance fitness was -0.067 ± 0.044.

Turning to D19Y, the abundance fitness is -0.173 ± 0.22.

For the variant M1S, the abundance fitness is -0.064 ± 0.096.

As for M1R, the abundance fitness was -0.056 ± 0.035.

With M1L, the abundance fitness is -0.074 ± 0.042.

Regarding M1D, the abundance fitness is -0.026 ± 0.061.

P38D: the abundance fitness is -0.854 ± 0.064.

Consider P38G, for which the abundance fitness is -0.902 ± 0.033.

Turning to P38E, the abundance fitness was -1.02 ± 0.062.

On to W13E, for which the abundance fitness is -0.683 ± 0.045.

With W13M, the abundance fitness is -0.398 ± 0.041.

For W13C, the abundance fitness was -0.636 ± 0.063.

Turning to W13R, the abundance fitness was -0.634 ± 0.04.

With T18R, the abundance fitness is -0.7 ± 0.035.

On to T18N, for which the abundance fitness is -0.391 ± 0.46.

On to T18M, for which the abundance fitness was -0.335 ± 0.044.

As for T18A, the abundance fitness was -0.151 ± 0.035.

In the case of T18S, the abundance fitness was -0.128 ± 0.044.

For the variant T18P, the abundance fitness is -1.03 ± 0.13.

In the case of T20M, the abundance fitness is -0.153 ± 0.042.

On to T20D, for which the abundance fitness is -0.054 ± 0.07.

Regarding T20S, the abundance fitness is -0.023 ± 0.053.

Regarding T20N, the abundance fitness was -0.132 ± 0.27.

Regarding W35L, the abundance fitness was -0.146 ± 0.039.

As for W35Q, the abundance fitness was -0.232 ± 0.033.

Consider W35G, for which the abundance fitness is -0.341 ± 0.03.

Regarding W35C, the abundance fitness was -0.222 ± 0.047.

Consider H28M, for which the abundance fitness is -0.386 ± 0.055.

As for H28E, the abundance fitness was -0.511 ± 0.047.

On to H28V, for which the abundance fitness was -0.273 ± 0.031.

Consider H28S, for which the abundance fitness is -0.28 ± 0.045.

Consider H28I, for which the abundance fitness was -0.328 ± 0.066.

Regarding H28T, the abundance fitness was -0.214 ± 0.06.

N12H: the abundance fitness is -0.185 ± 0.08.

Take N12K: the abundance fitness was -0.155 ± 0.044.

For N12Q, the abundance fitness is -0.237 ± 0.046.

As to N12S, the abundance fitness was -0.213 ± 0.038.

Regarding N12A, the abundance fitness is -0.191 ± 0.034.

With E14K, the abundance fitness is -0.262 ± 0.036.

On to E14Y, for which the abundance fitness was -0.368 ± 0.12.

As for E14F, the abundance fitness is -1.06 ± 0.27.

As to E14L, the abundance fitness is -0.456 ± 0.095.

For E14H, the abundance fitness was -0.429 ± 0.066.

Consider E14N, for which the abundance fitness was -0.372 ± 0.065.

As for T34V, the abundance fitness is -0.924 ± 0.039.

As to T34Q, the abundance fitness was -0.28 ± 0.056.

Take T34I: the abundance fitness was -1.02 ± 0.13.

The values are drawn from the Human Domainome abundance scans (Beltran et al. 2025).
